{
  "source": "paper PMC5440498",
  "target": "His-MBP-eYFP-PRDM9Cst-ZnF (Mus musculus castaneus (CAST/EiJ, Prdm9 Cst allele)) (UniProt Q96EQ9)",
  "sequence (Q96EQ9 whole entry)": "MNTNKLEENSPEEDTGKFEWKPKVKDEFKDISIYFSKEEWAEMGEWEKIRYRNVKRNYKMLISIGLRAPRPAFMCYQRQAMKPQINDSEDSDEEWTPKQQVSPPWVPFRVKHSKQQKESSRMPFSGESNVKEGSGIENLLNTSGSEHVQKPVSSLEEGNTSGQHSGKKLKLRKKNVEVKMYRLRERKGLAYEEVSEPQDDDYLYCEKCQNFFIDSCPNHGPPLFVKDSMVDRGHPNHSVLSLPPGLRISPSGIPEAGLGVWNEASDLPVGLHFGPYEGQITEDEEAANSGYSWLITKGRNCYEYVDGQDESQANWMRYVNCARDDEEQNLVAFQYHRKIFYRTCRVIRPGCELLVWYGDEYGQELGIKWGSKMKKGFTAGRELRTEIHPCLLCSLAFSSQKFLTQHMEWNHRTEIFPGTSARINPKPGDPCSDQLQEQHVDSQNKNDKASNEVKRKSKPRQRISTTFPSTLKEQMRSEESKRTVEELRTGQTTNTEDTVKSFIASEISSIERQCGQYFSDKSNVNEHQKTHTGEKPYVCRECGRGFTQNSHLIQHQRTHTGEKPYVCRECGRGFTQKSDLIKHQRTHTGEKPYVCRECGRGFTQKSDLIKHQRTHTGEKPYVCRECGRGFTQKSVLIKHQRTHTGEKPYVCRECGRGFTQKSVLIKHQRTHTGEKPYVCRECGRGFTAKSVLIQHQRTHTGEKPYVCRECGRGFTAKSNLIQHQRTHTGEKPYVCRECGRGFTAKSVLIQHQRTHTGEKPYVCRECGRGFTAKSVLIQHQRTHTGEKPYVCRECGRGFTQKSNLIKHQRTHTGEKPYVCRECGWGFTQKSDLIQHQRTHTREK",
  "assay": "EMSA",
  "details": "2.5 uM protein, 15 nM DNA, 50 ng/ul polydIdC, EMSA (chimeras): 10 mM Tris-HCl pH 7.5, 50 mM KCl, 1 mM DTT, 0.05% NP-40, 50 uM ZnCl2, titration EMSA: low polydIdC plus 0.03% sarcosyl …",
  "data": [
    {"sequence": "GTGGGAGGAGATGGTGGGTGAATAGTGTGCAGACTTGGACCCTGCCCTTTCTTTACGCATTCCACTAACCATGGG (double strand) [Hlx1 B6 75 bp (hot)]", "values": [
      {"measurement": "binding signal", "result": 100, "unit": "% bound"}
    ]}
  ]
}
